Drawing on PMC7156742, “RNA-DNA strand exchange by the Drosophila Polycomb complex PRC2”, this text covers Kd for 1 molecule.

One data set deals with PRC1ΔPh (UniProt P35820;P26017;Q9VB08 1-1601;1-390;1-435). Nature of the data set: filter binding; 12 mM Hepes pH 7.9, 0.12 mM EDTA, 120 nM KCl (so in the source); probably mM), 1 mM DTT, 0.01% NP40, 12% glycerol, 0.01 nM probe, 30 min at 30 °C; EMSA plus 50 ng/uL BSA. As to conditions: protein: recombinant; tags: FLAG; copies: 1;1;1; label: Cy5 or Cy3 on DNA R; 32P at unlabelled 5' ends; blunt.

Another data set deals with PRC2 (UniProt P42124;Q24338;Q9NJG9;Q24572 1-760;1-425;1-900;1-430). Described as above. As to conditions: protein: recombinant; tags: 6xHis-E(Z); FLAG on Esc or Su(Z)12; copies: 1;1;1;1; label: Cy5 or Cy3 on DNA R; 32P at unlabelled 5' ends; blunt.

PRC1ΔPh, sequence (P35820 whole entry, stated change not applied, chain 1 of 3): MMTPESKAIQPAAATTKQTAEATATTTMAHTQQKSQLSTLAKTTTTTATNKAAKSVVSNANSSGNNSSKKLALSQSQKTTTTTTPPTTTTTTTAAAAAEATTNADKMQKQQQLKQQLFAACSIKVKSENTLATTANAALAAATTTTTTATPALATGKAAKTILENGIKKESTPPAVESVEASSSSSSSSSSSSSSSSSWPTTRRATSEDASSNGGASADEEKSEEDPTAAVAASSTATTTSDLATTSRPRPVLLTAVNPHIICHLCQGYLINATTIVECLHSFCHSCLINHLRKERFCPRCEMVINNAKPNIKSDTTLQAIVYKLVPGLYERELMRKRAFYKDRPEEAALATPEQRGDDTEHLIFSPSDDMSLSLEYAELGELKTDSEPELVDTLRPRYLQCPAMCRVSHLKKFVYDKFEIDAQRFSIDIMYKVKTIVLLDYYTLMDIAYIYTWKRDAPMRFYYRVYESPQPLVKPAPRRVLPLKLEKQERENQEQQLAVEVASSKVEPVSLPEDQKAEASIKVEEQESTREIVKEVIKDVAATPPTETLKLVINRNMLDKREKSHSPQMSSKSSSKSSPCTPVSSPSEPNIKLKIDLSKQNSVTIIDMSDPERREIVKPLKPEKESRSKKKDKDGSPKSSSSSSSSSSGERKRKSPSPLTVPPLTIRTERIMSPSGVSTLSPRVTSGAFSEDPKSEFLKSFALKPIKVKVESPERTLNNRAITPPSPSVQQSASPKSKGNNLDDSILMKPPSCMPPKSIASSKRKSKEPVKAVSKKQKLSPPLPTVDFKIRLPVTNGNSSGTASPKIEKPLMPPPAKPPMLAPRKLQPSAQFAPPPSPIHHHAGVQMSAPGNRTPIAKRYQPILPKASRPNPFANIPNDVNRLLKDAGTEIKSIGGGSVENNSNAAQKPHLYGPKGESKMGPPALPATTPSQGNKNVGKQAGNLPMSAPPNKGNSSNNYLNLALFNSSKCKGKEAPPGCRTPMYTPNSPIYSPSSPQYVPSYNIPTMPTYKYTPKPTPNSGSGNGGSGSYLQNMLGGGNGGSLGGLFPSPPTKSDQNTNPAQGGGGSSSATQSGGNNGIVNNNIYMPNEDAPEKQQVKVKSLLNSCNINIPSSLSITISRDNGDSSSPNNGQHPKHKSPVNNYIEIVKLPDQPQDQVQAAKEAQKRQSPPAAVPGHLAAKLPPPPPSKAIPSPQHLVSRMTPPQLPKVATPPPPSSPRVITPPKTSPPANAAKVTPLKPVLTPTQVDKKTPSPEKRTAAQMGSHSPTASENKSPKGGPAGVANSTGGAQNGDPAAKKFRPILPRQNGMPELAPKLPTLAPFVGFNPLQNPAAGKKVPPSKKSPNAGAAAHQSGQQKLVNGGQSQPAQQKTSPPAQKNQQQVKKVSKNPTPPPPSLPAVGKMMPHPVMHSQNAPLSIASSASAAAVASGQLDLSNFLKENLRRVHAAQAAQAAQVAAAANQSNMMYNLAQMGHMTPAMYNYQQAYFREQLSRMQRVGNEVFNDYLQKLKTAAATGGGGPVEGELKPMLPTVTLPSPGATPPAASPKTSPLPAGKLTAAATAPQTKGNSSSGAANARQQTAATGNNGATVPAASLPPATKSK
PRC1ΔPh, sequence (P26017 whole entry, stated change not applied, chain 2 of 3): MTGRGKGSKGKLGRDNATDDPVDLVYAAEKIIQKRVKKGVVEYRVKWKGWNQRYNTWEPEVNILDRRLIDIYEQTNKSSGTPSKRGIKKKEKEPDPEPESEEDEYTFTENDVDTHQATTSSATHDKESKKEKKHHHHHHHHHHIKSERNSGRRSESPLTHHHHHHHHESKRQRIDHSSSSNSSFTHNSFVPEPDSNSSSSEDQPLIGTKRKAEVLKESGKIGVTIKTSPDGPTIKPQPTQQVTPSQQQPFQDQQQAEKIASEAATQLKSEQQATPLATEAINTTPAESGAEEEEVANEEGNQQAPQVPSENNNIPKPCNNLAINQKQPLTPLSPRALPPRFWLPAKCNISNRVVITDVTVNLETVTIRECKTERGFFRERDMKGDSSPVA
PRC1ΔPh, sequence (Q9VB08 whole entry, stated change not applied, chain 3 of 3): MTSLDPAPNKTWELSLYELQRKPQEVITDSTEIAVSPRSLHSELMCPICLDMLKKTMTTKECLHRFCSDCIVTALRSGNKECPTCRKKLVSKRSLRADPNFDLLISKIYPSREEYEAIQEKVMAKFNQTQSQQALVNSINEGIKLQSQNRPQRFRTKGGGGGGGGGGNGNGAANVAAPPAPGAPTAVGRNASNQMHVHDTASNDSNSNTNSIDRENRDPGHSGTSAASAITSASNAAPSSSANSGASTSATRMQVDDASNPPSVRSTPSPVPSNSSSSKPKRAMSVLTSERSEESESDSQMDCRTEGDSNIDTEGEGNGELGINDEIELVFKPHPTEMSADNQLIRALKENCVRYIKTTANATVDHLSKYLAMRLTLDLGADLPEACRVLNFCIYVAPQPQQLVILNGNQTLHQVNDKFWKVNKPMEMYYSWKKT

B1: vg PRE dsDNA (dsDNA)
DNA 1: CGGGTTGTCAAGAATTTTAACGGCCATTTCTGTGAGTGTGTGCGAGCTGCCAAGTGTGTGTGAGTGTGTTTGTGACAAACGCAAGCTCATGTAAGTGCTC
DNA 2: GAGCACTTACATGAGCTTGCGTTTGTCACAAACACACTCACACACACTTGGCAGCTCGCACACACTCACAGAAATGGCCGTTAAAATTCTTGACAACCCG
Turning to B1, the Kd in the data set with PRC1ΔPh stood at 0.164 nM; with PRC2 it was 6.44 nM.
